Results: US20260273049A1 (ALLIGATOR BIOSCIENCE, published 2026)

T1: CEACAM-8 (#9639-CM-050, R&D Systems) (UniProt P31997 35-320, limits assumed)
T1 construct: Bought protein
T1 sequence (looked up): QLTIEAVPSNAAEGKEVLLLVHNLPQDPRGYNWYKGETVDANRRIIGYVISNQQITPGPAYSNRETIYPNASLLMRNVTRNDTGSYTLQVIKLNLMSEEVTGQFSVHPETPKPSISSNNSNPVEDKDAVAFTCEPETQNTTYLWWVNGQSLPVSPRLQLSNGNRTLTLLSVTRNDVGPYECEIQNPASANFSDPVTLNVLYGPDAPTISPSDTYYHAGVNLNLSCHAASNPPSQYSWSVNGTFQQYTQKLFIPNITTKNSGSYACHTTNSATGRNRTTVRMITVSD

T2: human CEACAM5 (hCEACAM-5, #4128-CM-050, R&D Systems) (human, UniProt P06731 35-685)
T2 construct: Bought protein; also called Human CEACAM5-His; monomeric human CEACAM5-His
T2 sequence (looked up): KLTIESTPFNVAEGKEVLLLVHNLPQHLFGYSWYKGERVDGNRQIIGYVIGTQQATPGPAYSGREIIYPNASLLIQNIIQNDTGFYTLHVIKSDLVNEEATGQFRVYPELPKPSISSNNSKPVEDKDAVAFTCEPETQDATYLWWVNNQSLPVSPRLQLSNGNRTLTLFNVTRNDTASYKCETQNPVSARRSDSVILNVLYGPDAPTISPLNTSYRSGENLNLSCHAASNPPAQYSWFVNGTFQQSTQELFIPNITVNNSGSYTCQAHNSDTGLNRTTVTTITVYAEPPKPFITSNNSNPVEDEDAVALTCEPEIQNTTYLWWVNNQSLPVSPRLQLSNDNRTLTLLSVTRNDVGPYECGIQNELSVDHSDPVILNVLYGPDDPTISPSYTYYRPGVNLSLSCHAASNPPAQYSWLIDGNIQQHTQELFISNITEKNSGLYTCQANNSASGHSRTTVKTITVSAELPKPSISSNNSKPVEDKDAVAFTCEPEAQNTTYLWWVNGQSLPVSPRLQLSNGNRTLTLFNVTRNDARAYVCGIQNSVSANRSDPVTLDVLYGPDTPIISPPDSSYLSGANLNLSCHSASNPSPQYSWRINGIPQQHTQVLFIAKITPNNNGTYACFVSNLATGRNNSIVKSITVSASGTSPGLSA

T3: human CEACAM1 expressed on CHO cells (human, UniProt P13688 35-526)
T3 construct: whole, on cells; also called CHO-CEACAM1; CEACAM1 on cells
T3 sequence (looked up): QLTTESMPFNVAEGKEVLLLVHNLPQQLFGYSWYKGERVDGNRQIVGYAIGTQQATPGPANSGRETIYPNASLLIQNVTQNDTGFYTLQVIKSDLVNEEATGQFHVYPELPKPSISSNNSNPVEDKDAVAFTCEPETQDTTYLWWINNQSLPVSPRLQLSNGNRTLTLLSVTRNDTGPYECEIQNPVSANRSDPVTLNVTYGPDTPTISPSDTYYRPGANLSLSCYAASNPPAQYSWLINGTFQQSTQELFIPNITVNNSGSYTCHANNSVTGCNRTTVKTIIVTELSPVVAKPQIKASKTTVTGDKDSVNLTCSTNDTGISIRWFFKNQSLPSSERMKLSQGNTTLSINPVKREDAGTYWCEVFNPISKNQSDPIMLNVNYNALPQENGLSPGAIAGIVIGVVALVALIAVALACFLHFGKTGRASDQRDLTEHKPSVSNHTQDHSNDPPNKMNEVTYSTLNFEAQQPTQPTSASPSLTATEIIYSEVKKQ

T4: human CEACAM5 expressed on cells (CHO-CEACAM5; MKN45, LS174T tumor cells) (human, UniProt P06731 35-685, GPI anchor on the C-terminal residue (685); heavily N-glycosylated)
T4 construct: also called CEACAM5 on cells; CEA expressed on cells
T4 sequence: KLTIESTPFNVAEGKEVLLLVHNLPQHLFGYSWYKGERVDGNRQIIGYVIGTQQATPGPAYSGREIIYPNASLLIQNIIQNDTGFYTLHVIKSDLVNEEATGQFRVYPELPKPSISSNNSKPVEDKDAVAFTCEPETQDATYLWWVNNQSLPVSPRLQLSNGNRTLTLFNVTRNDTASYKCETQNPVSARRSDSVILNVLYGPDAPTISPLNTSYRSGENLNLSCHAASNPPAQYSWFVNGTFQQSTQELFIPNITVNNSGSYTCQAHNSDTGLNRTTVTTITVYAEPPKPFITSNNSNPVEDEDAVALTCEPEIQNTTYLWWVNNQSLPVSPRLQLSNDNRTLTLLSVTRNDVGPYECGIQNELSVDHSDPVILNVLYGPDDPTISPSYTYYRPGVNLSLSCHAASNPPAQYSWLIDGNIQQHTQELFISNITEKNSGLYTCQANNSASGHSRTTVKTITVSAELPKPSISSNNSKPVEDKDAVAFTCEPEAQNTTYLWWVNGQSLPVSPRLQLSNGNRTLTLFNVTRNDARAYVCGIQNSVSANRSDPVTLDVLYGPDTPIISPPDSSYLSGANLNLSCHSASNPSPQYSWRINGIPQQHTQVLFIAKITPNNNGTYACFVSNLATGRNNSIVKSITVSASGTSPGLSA


Assays:
[1] = biological target: human CD40 expressed on cells (CD40 reporter cells, HEK Blue CD40L cells, B cells, Raji cells) (human, UniProt P25942 21-277); assay: cell-based or functional assay
Chain of human CD40 expressed on cells (CD40 reporter cells, HEK Blue CD40L cells, B cells, Raji cells) (P25942 21-277): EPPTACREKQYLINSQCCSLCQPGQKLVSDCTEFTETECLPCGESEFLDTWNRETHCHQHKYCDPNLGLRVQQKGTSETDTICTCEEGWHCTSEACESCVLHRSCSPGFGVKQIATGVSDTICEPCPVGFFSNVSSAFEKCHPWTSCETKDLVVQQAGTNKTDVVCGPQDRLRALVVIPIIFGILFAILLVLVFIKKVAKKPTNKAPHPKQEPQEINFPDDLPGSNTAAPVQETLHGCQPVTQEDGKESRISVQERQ

[2] = biological target: T1, CEACAM-8 (#9639-CM-050, R&D Systems); assay: ELISA; antigen coated at 0.5 µg/mL, bsAb titrated, anti-human kappa-HRP, luminescence [3/7) Multi40]
Experimental: (§1) 96-well plates were coated with 0.5 μg/mL antigen, hCEACAM-1 (2244-CM-050, R&D Systems), hCEACAM-5 (4128-CM-050, R&D Systems), hCEACAM-6 (3934-CM-050, R&D Systems) or CEACAM-8 (9639-CM-050, R&D Systems) in PBS over night at 4° C. After washing in PBS/0.05% Tween 20 (PBST), the plates were blocked with PBST, 2% BSA for at least 30 minutes at room temperature before a second round of washing. RUBY bsAbs, diluted in PBST, 0.5% BSA, were then added and allowed to bind for at least 1 hour at room temperature. […] Finally, a final round of washing was performed and bound complexes detected using SuperSignal Pico Luminescent as substrate and luminescence signals were measured using Fluostar Optima.

[3] = biological target: T2, human CEACAM5 (hCEACAM-5, #4128-CM-050, …); assay: dual target ELISA; hCEACAM-5 coated, bsAb titrated, detection with biotinylated hCD40-muIg and streptavidin-HRP, luminescence; signal needs both targets [1/2) B]
Experimental: as §1

[4] = biological target: T3, human CEACAM1 expressed on CHO cells; assay: flow cytometry on CEACAM1-transfected CHO cells, fluorochrome-conjugated anti-human IgG [1/2) B]
Source text: The human CEACAM5 and CEACAM1 genes were cloned into pcDNA3.1, and the vector was subsequently stably transfected into CHO cells. […] Binding of the antibodies was detected using fluorochrome-conjugated anti-human IgG and analyzed using flow cytometry.

[5] = biological target: T4, human CEACAM5 expressed on cells …; assay: flow cytometry on LS174T tumor cells (intermediate CEACAM5), fluorochrome-conjugated anti-human IgG [2/3) E]
[6] = biological target: T2, human CEACAM5 (hCEACAM-5, #4128-CM-050, …); assay: ELISA; antigen coated at 0.5 µg/mL, bsAb titrated, anti-human kappa-HRP, luminescence [3/7) Multi39]
Experimental: as §1

| Binder | EC50 (nM), HEK Blue CD40L SEAP reporter, CHO-CEACAM5 crosslinking, 0 Raji sink cells/well [1] [nM] | EC50 (nM), HEK Blue CD40L SEAP reporter, CHO-CEACAM5 crosslinking, 10 000 Raji sink cells/well [1] [nM] | EC50 (nM), HEK Blue CD40L SEAP reporter, CHO-CEACAM5 crosslinking, 30 000 Raji sink cells/well [1] [nM] | EC50 (nM), HEK Blue CD40L SEAP reporter, CHO-CEACAM5 crosslinking, 90 000 Raji sink cells/well [1] [nM] | other results |
| --- | --- | --- | --- | --- | --- |
| ffAC_05337 (bispecific antibody, human IgG1, kappa, L234A L235A) heavy: not shown light: DIQMTQSPSSLSASVGDRVTITCRASQSISSYLNWYQEKPGKAPKLLIYAASSLQSGVPSRFSGSGSGTDFTLTISSLQPEDFATYYCQQAGNPHTFGQGTKLEIKRTVAAPSVFIFPPSDEQLKSGTASVVCYLNNFYPREAKVQWKVDNALQSGNSQESVTEQDSKDSTYSLWSTLTLSKADYEKHKVYACEVTHQGLSSPVTKSFNRGEC EVQLLESGGGLVQPGGSLRLSCAASGFTFSTYGMHWVREAPGKGLEWLSYISGGSSYIFYADSVKGRFTISRDNSKNTLYLQMNSLRAEDTAVYYCARILRGGSGMDLWGQGTLVTVSSASTKGPSVFPLAPSSKSTSGGTAALGCLVKDYFPEPVTVSWNSGALTSGVHTFPAVLQSSGLYSLTSVVEVPSSSLGTQTYICNVNHKPSNTKVDKKVEPKSC | 0.04 | 0.08 | 0.11 | 0.41 |  |
| Multi40 (bispecific antibody, Optimized RUBY format; copies: 2 + 2 + 2) heavy 1: not shown light: DIQMTQSPSSLSASVGDRVTITCRASQSISSYLNWYQEKPGKAPKLLIYAASSLQSGVPSRFSGSGSGTDFTLTISSLQPEDFATYYCQQSSHGPLLTFGQGTKLEIKRTVAAPSVFIFPPSDEQLKSGTASVVCYLNNFYPREAKVQWKVDNALQSGNSQESVTEQDSKDSTYSLWSTLTLSKADYEKHKVYACEVTHQGLSSPVTKSFNRGEC heavy 2: EVQLLESGGGLVQPGGSLRLSCAASGFTFSTYGMHWVREAPGKGLEWLSYISGGSSYIFYADSVKGRFTISRDNSKNTLYLQMNSLRAEDTAVYYCARILRGGSGMDLWGQGTLVTVSSASTKGPSVFPLAPSSKSTSGGTAALGCLVKDYFPEPVTVSWNSGALTSGVHTFPAVLQSSGLYSLTSVVEVPSSSLGTQTYICNVNHKPSNTKVDKKVEPKSC |  |  |  |  | binding result [2]: no binding (tested: 100 nM); EC50 (read off the curve) [3]: ~600 pM |
| Multi42 (bispecific antibody, human IgG1, kappa, L234A L235A) heavy: not shown light: EIVLTQSPGTLSLSPGERATLSCRASQSVSSSYLAWYQEKPGQAPRLLIYGASSRATGIPDRFSGSGSGTDFTLTISRLEPEDFAVYYCQQYWYPLTFGQGTKLEIKRTVAAPSVFIFPPSDEQLKSGTASVVCYLNNFYPREAKVQWKVDNALQSGNSQESVTEQDSKDSTYSLWSTLTLSKADYEKHKVYACEVTHQGLSSPVTKSFNRGEC EVQLLESGGGLVQPGGSLRLSCAASGFTFSTYGMHWVREAPGKGLEWLSYISGGSSYIFYADSVKGRFTISRDNSKNTLYLQMNSLRAEDTAVYYCARILRGGSGMDLWGQGTLVTVSSASTKGPSVFPLAPSSKSTSGGTAALGCLVKDYFPEPVTVSWNSGALTSGVHTFPAVLQSSGLYSLTSVVEVPSSSLGTQTYICNVNHKPSNTKVDKKVEPKSC | 0.04 | 0.06 | 0.11 | 0.36 |  |
| Multi41 (bispecific antibody, Optimized RUBY format; copies: 2 + 2 + 2) heavy 1: not shown light: DIQMTQSPSSLSASVGDRVTITCRASQSISSYLNWYQEKPGKAPKLLIYAASSLQSGVPSRFSGSGSGTDFTLTISSLQPEDFATYYCQQWRSHLFTFGQGTKLEIKRTVAAPSVFIFPPSDEQLKSGTASVVCYLNNFYPREAKVQWKVDNALQSGNSQESVTEQDSKDSTYSLWSTLTLSKADYEKHKVYACEVTHQGLSSPVTKSFNRGEC heavy 2: EVQLLESGGGLVQPGGSLRLSCAASGFTFSTYGMHWVREAPGKGLEWLSYISGGSSYIFYADSVKGRFTISRDNSKNTLYLQMNSLRAEDTAVYYCARILRGGSGMDLWGQGTLVTVSSASTKGPSVFPLAPSSKSTSGGTAALGCLVKDYFPEPVTVSWNSGALTSGVHTFPAVLQSSGLYSLTSVVEVPSSSLGTQTYICNVNHKPSNTKVDKKVEPKSC | 0.03 | 0.06 | 0.13 | 0.36 | binding result [4]: no binding (tested: 400 nM) |
| AC_05337 (bispecific antibody) heavy 1: not shown light: DIQMTQSPSSLSASVGDRVTITCRASQSISSYLNWYQEKPGKAPKLLIYAASSLQSGVPSRFSGSGSGTDFTLTISSLQPEDFATYYCQQAGNPHTFGQGTKLEIKRTVAAPSVFIFPPSDEQLKSGTASVVCYLNNFYPREAKVQWKVDNALQSGNSQESVTEQDSKDSTYSLWSTLTLSKADYEKHKVYACEVTHQGLSSPVTKSFNRGEC heavy 2: EVQLLESGGGLVQPGGSLRLSCAASGFTFSTYGMHWVREAPGKGLEWLSYISGGSSYIFYADSVRGRFTISRDNSENALYLQMNSLRAEDTAVYYCARILRGGSGMDLWGQGTLVTVSSASTKGPSVFPLAPSSKSTSGGTAALGCLVKDYFPEPVTVSWNSGALTSGVHTFPAVLQSSGLYSLSSVVEVPSSSLGTQTYICNVNHKPSNTKVDKKVEPKSC |  |  |  |  | EC50 (read off the curve) [5]: ~4000 pM |
| Multi39 (bispecific antibody, Optimized RUBY format; copies: 2 + 2 + 2) heavy 1: not shown light: not shown heavy 2: EVQLLESGGGLVQPGGSLRLSCAASGFTFYDHAMSWVREAPGKGLEWVSAISGSYGSTGYADSVKGRFTISRDNSKNTLYLQMNSLRAEDTAVYYCARWGGWAGDIDYWGQGTLVTVSSASTKGPSVFPLAPSSKSTSGGTAALGCLVKDYFPEPVTVSWNSGALTSGVHTFPAVLQSSGLYSLTSVVEVPSSSLGTQTYICNVNHKPSNTKVDKKVEPKSC |  |  |  |  | EC50 (read off the curve) [6]: 1000 to 2000 pM |
